Drawing on US20230365641A1 (XILIO DEVELOPMENT, published 2023), this text covers Kd, koff and kon for one molecule.

The assay deals with PD-1 (antigen of the ELISA and of the in vitro affinity measurement) (UniProt Q15116 25-167, limits assumed). Kind of assay: kinetic binding table: TC4 captured as ligand (capture level 74.3 RU), hPD1-his as sample; method not given.
Chain of PD-1 (antigen of the ELISA and of the in vitro affinity measurement) (Q15116 25-167 limits assumed): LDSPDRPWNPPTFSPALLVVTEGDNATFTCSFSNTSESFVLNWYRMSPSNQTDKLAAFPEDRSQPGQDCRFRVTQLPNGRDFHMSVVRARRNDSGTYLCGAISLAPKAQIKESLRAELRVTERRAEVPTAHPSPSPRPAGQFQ

B1: TC4 (Fc fusion)
heavy 1: QVQLVQSGVEVKKPGASVKVSCKASGYTFTNYYMYWVRQAPGQGLEWMGGINPSNGGTNFNEKFKNRVTLTTDSSTTTAYMELKSLQFDDTAVYYCARRDYRFDMGFDYWGQGTTVTVSSASTKGPSVFPLAPSSKSTSGGTAALGCLVKDYFPEPVTVSWNSGALTSGVHTFPAVLQSSGLYSLSSVVTVPSSSLGTQTYICNVNHKPSNTKVDKKVEPKSCDKTHTCPPCPAPELLGGPSVFLFPPKPKDTLMISRTPEVTCVVVDVSHEDPEVKFNWYVDGVEVHNAKTKPREEQYASTYRVVSVLTVLHQDWLNGKEYKCKVSNKALPAPIEKTISKAKGQPREPQVYTLPPCRDELTKNQVSLWCLVKGFYPSDIAVEWESNGQPENNYKTTPPVLDSDGSFFLYSKLTVDKSRWQQGNVFSCSVMHEALHNRFTQKSLSLSPGGGSSPPGGGSSGGGSGPAPTSSSTKKTQLQLEHLLLDLQMILNGINNYKNPKLTAMLTAKFAMPKKATELKHLQCLEEALKPLEEVLNLAQSKNFHLRPRDLISNINVIVLELKGSETTFMCEYADETATIVEFLNRWITFAQSIISTLT
heavy 2: QVQLVQSGVEVKKPGASVKVSCKASGYTFTNYYMYWVRQAPGQGLEWMGGINPSNGGTNFNEKFKNRVTLTTDSSTTTAYMELKSLQFDDTAVYYCARRDYRFDMGFDYWGQGTTVTVSSASTKGPSVFPLAPSSKSTSGGTAALGCLVKDYFPEPVTVSWNSGALTSGVHTFPAVLQSSGLYSLSSVVTVPSSSLGTQTYICNVNHKPSNTKVDKKVEPKSCDKTHTCPPCPAPELLGGPSVFLFPPKPKDTLMISRTPEVTCVVVDVSHEDPEVKFNWYVDGVEVHNAKTKPREEQYASTYRVVSVLTVLHQDWLNGKEYKCKVSNKALPAPIEKTISKAKGQPREPQVCTLPPSRDELTKNQVSLSCAVKGFYPSDIAVEWESNGQPENNYKTTPPVLDSDGSFFLVSKLTVDKSRWQQGNVFSCSVMHEALHNHYTQKSLSLSPGGPPSGSSPVPLSLYSGSGGGAVNGTSQFTCFYNSRANISCVWSQDGALQDTSCQVHAWPDRRRWNQTCELLPVSQASWACNLILGAPDSQKLTTVDIVTLRVLCREGVRWRVMAIQDFKPFENLRLMAPISLQVVHVETHRSNISWEISQASHYFERHLEFEARTLSPGHTWEEAPLLTLKQKQEWISLETLTPDTQYEFQVRVKPLQGEFTTWSPWSQPLAFRTKPAALGKD
light: EIVLTQSPATLSLSPGERATLSCRASKGVSTSGYSYLHWYQQKPGQAPRLLIYLASYLESGVPARFSGSGSGTDFTLTISSLEPEDFAVYYCQHSRDLPLTFGGGTKVEIKRTVAAPSVFIFPPSDEQLKSGTASVVCLLNNFYPREAKVQWKVDNALQSGNSQESVTEQDSKDSTYSLSSTLTLSKADYEKHKVYACEVTHQGLSSPVTKSFNRGEC
As to B1, the Kd was 6.58 nM, the dissociation rate constant (koff) came out at 0.00306 s⁻¹ and the kon worked out at 465000 M⁻¹ s⁻¹.

Broadly, the Kd is a measure of binding affinity in units of concentration. In general, koff refers to a measure of how fast the partners let go of each other. Lower therefore signals a long-lived complex. One may read the kon as the second-order rate constant of association. The low end stands for slower complex formation, the high end for faster complex formation.
